Measurements published in paper PMC10786891, “Massively parallel profiling of RNA-targeting CRISPR-Cas13d”.
Where a chain is given by its changes, count along the chain named. Names may count otherwise.

T1: EsCas13d, nuclease-dead (Eubacterium siraeum, UniProt B0MS50, R295A;H300A;R849A;H854A)
T1 sequence: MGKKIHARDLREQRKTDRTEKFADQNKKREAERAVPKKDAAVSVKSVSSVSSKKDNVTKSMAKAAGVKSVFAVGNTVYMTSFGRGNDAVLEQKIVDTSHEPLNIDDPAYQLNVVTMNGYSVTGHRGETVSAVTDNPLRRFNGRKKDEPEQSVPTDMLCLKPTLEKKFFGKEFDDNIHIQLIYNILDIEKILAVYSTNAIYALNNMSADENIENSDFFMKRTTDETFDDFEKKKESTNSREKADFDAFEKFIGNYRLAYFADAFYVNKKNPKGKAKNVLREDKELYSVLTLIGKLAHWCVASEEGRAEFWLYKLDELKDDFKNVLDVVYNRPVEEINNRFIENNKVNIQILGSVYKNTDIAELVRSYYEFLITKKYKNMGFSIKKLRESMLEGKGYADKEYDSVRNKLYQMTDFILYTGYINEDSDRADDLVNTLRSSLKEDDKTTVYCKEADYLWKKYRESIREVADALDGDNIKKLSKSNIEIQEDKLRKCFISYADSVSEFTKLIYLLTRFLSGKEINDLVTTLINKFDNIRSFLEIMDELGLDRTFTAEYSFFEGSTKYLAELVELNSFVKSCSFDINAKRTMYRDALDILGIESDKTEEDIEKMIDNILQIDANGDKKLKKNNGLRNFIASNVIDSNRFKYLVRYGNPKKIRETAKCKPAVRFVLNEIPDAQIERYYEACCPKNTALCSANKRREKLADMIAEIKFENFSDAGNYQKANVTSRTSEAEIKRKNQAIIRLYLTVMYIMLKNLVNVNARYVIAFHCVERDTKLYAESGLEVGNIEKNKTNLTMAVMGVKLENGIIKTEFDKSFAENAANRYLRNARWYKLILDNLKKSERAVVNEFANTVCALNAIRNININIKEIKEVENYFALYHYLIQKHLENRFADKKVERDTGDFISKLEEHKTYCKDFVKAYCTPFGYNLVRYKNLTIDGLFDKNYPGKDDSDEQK

B1: target 1 C2U,A18C (mixed)
RNA 1: CACCCGUGCAAAAAUGCAGGGGUCUAAAACUGAGCGGAUAACCUCUCUAUGG
RNA 2: GGGAAUGGAUCCACAUCUACGAAUUCGUACCAUCGAGAGGUUAUCCGCUUACCGAGAUCGGAAGAGCACACGU
B2: target 1 G5C,G15C (mixed)
RNA 1: B1 RNA 1
RNA 2: B1 RNA 2 with C34A, G37C, G47C, U50C
B3: target 1 A18U,C21U (mixed)
RNA 1: B1 RNA 1
RNA 2: B1 RNA 2 with C31U, C34U, U50C
B4: target 1 insG 3' of 14,insG 3' of 3 (mixed)
RNA 1: B1 RNA 1
RNA 2: GGGAAUGGAUCCACAUCUACGAAUUCGUACCAUAGAGAGGGUUAUCCGCUGCACCGAGAUCGGAAGAGCACACGU
B5: target 1 insC 3' of 5,insG 3' of 3 (mixed)
RNA 1: B1 RNA 1
RNA 2: B4 RNA 2 with G41U, U43A, A44U, U45C, C47G, G48C
B6: target 1 C2G,G15U (mixed)
RNA 1: B1 RNA 1
RNA 2: B1 RNA 2 with C34A, G37U, U50G
B7: target 1 insG 3' of 14,insG 3' of 1 (mixed)
RNA 1: B1 RNA 1
RNA 2: B4 RNA 2 with G51C, C52A, A53G
B8: target 1 insG 3' of 11,insC 3' of 1 (mixed)
RNA 1: B1 RNA 1
RNA 2: B4 RNA 2 with G41U, U42G, G51C, C52A, A53C
B9: target 1 insU 3' of 15,insG 3' of 2 (mixed)
RNA 1: B1 RNA 1
RNA 2: B4 RNA 2 with A38U, G39A, G51C, C52G
B10: target 1 insA 3' of 21,insG 3' of 20 (mixed)
RNA 1: B1 RNA 1
RNA 2: GGGAAUGGAUCCACAUCUACGAAUUCGUACCAAGUAGAGAGGUUAUCCGCUCACCGAGAUCGGAAGAGCACACGU
B11: target 1 insG 3' of 11,insG 3' of 1 (mixed)
RNA 1: B1 RNA 1
RNA 2: B4 RNA 2 with G41U, U42G, G51C, C52A, A53G
B12: target 1 C7U,C21U (mixed)
RNA 1: B1 RNA 1
RNA 2: B1 RNA 2 with C31U, C34A, C45U, U50C
B13: target 1 C4A,C22A (mixed)
RNA 1: B1 RNA 1
RNA 2: B1 RNA 2 with C30A, C34A, C48A, U50C
B14: target 1 insA 3' of 12,insG 3' of 3 (mixed)
RNA 1: B1 RNA 1
RNA 2: B4 RNA 2 with G41A
B15: target 1 insU 3' of 18,insU 3' of 5 (mixed)
RNA 1: B1 RNA 1
RNA 2: B4 RNA 2 with G35U, A36G, G37A, A38G, G39A, C49U, U50C, G51U
B16: target 1 U3A,A20U (mixed)
RNA 1: B1 RNA 1
RNA 2: B1 RNA 2 with A32U, C34A, U49A, U50C
B17: target 1 C6U,G15U (mixed)
RNA 1: B1 RNA 1
RNA 2: B1 RNA 2 with C34A, G37U, C46U, U50C
B18: target 1 A1G,A18G (mixed)
RNA 1: B1 RNA 1
RNA 2: B1 RNA 2 with C34G, U50C, A51G
B19: target 1 insC 3' of 12,insU 3' of 9 (mixed)
RNA 1: B1 RNA 1
RNA 2: B4 RNA 2 with G41C, C46U, G48C, C49G, U50C, G51U
B20: target 1 insG 3' of 18,insA 3' of 4 (mixed)
RNA 1: B1 RNA 1
RNA 2: B4 RNA 2 with A36G, G37A, A38G, G39A, U50A, G51U
B21: target 1 insG 3' of 19,insU 3' of 15 (mixed)
RNA 1: B1 RNA 1
RNA 2: B10 RNA 2 with A33U, U35A, A36G, G37A, A38G, G39U
B22: target 1 insU 3' of 17,insC 3' of 15 (mixed)
RNA 1: B1 RNA 1
RNA 2: B10 RNA 2 with A33U, G34A, U35G, A36U, G37A, A38G, G39C
B23: target 1 insG 3' of 10,insG 3' of 3 (mixed)
RNA 1: B1 RNA 1
RNA 2: B4 RNA 2 with G41U, U43G
B24: target 1 G12A,G15U (mixed)
RNA 1: B1 RNA 1
RNA 2: B1 RNA 2 with C34A, G37U, G40A, U50C
B25: target 1 U3A,G12A (mixed)
RNA 1: B1 RNA 1
RNA 2: B1 RNA 2 with C34A, G40A, U49A, U50C
B26: target 1 insG 3' of 11,insA 3' of 2 (mixed)
RNA 1: B1 RNA 1
RNA 2: B4 RNA 2 with G41U, U42G, G51C, C52A
B27: target 1 insG 3' of 14,insA 3' of 2 (mixed)
RNA 1: B1 RNA 1
RNA 2: B4 RNA 2 with G51C, C52A
B28: target 1 U8G,G17U (mixed)
RNA 1: B1 RNA 1
RNA 2: B1 RNA 2 with C34A, G35U, U44G, U50C
B29: target 1 insG 3' of 14,insC 3' of 1 (mixed)
RNA 1: B1 RNA 1
RNA 2: B4 RNA 2 with G51C, C52A, A53C
B30: target 1 insA 3' of 13,insU 3' of 12 (mixed)
RNA 1: B1 RNA 1
RNA 2: B10 RNA 2 with A33U, G34A, U35G, G42U
B31: target 1 C2A,U10A (mixed)
RNA 1: B1 RNA 1
RNA 2: B1 RNA 2 with C34A, U42A, U50A
B32: target 1 U19C,C22A (mixed)
RNA 1: B1 RNA 1
RNA 2: B1 RNA 2 with C30A, U33C, C34A, U50C
B33: target 1 insU 3' of 14,insC 3' of 12 (mixed)
RNA 1: B1 RNA 1
RNA 2: B10 RNA 2 with A33U, G34A, U35G, G39U, A40G, G42C
B34: target 1 C7A,U8C (mixed)
RNA 1: B1 RNA 1
RNA 2: B1 RNA 2 with C34A, U44C, C45A, U50C
B35: target 1 insA 3' of 10,insU 3' of 2 (mixed)
RNA 1: B1 RNA 1
RNA 2: B4 RNA 2 with G41U, U43A, G51C, C52U

The binders below were run against T1, EsCas13d, nuclease-dead (assay: crRNA (strand 1, pre-loaded); Mg2+; 40 mM Tris-HCl pH 7.5, 150 mM NaCl, 6 mM MgCl2, 1 mM DTT, 0.1% Tween-20, 0.2 mg/ml BSA; 25 C; 10 min per concentration, then washed). Settings: tags: His6-TwinStrep-SUMO cleaved; N-terminal SNAP kept (SNAP-Surface 488); label: 3' end held by stalled T7 RNA polymerase.

B1 and B2 are within 1.5-fold of each other in Kd: 48.9 ± 2.9 nM for the first, 38 ± 5 nM for the second.

B3 and B4 are within 1.5-fold of each other in Kd: 6.5 ± 0.32 nM for the first, 7.9 ± 0.4 nM for the second.

B5 and B6 are within error of each other in Kd: 24.9 ± 2.3 nM for the first, 33 ± 13 nM for the second.

First: B7
Second: B8
The Kd of the first is 3.1-fold lower: 11.3 ± 0.7 nM for the first, 35 ± 6 nM for the second.

Compared with B9, B10 is 2.5-fold higher in Kd: 9.7 ± 0.7 nM for the first, 24 ± 4 nM for the second.

First: B11
Second: B12
The Kd of the first is 5.7-fold higher: 34 ± 4 nM for the first, 6 ± 0.4 nM for the second. The second binds more tightly here.

Compared with B13, B14 is 3.3-fold higher in Kd: 5.7 ± 0.8 nM for the first, 18.7 ± 1.6 nM for the second.

B15 and B16 are within error of each other in Kd: 48 ± 5 nM for the first, 44 ± 4 nM for the second.

First: B17
Second: B18
The Kd of the first is 2.2-fold lower: 32.9 ± 1.9 nM for the first, 74 ± 21 nM for the second.

Going from B19 to B20, the Kd rises from 14 ± 2.2 nM to 43 ± 5 nM (3.1-fold). The first binds more tightly here.

Going from B21 to B22, the Kd falls from 60 ± 9 nM to 26.1 ± 1.8 nM (2.3-fold).

Going from B23 to B24, the Kd falls from 28.4 ± 2.8 nM to 18.7 ± 2.5 nM (1.5-fold). The second binds more tightly here.

Going from B25 to B26, the Kd rises from 4.12 ± 0.33 nM to 49 ± 6 nM (12-fold). The first binds more tightly here.

First: B27
Second: B28
The Kd of the first is 6.8-fold lower: 13.3 ± 1.6 nM for the first, 91 ± 14 nM for the second. The first binds more tightly here.

Going from B29 to B30, the Kd falls from 10.4 ± 0.4 nM to 4.2 ± 0.5 nM (2.5-fold). The second binds more tightly here.

Compared with B31, B32 is 3.1-fold higher in Kd: 13.9 ± 0.8 nM for the first, 43 ± 5 nM for the second.

First: B33
Second: B34
The Kd of the first is 5.6-fold higher: 50 ± 10 nM for the first, 9 ± 0.4 nM for the second. The second binds more tightly here.

B35 gave a Kd of 13.8 ± 0.7 nM.
